Assay in all cases: MST
Experiment [1] addresses R663H human β-cardiac 25-hep HMM (UniProt P12883).
In experiment [2] the target is WT human β-cardiac sS1 (short S1) (human) (UniProt P12883).
Experiment [3] deals with R663H human β-cardiac sS1 (human) (UniProt P12883).

In experiment [1], “C0-C7 fragment of myosin binding protein-C (MyBP-C) (domain or fragment)” had a Kd of 0.9 µM.

For the substance “proximal S2 of human β-cardiac myosin (from UniProt P12883 1-1935) (domain or fragment)”, the Kd worked out at 67 µM in experiment [2] and 50 µM in experiment [3].

As usually defined, the Kd is the constant that tells how readily two partners part at equilibrium.

The record behind these values is publication doi:10.1101/543413.
